Reference: patent US20090291088A1, “THERAPEUTIC COMBINATIONS OF ANTI-IGF-1R ANTIBODIES AND OTHER COMPOUNDS” (Biogen Idec MA Inc., priority 2008, published 2009)

Experiments:
[1] = biological target: All other mutant IGF-1R constructs (SD001-SD019 other than SD015); assay: SPR, Fab over captured mutant receptor-Fc
[2] = biological target: murine IGF-1R(1-903)-Fc (mouse; human) (UniProt Q60751); assay: SPR, Fab over captured mIGF-1R-Fc, 3 hr dissociation
[3] = biological target: murine IGF-1R(1-903)-Fc (mouse; human) (UniProt Q60751); assay: SPR
[4] = biological target: murine IGF-1R(1-903)-Fc (mouse; human) (UniProt Q60751); assay: SPR, Fab over captured mIGF-1R-Fc
[5] = biological target: murine IGF-1R(1-903)-Fc (mouse; human) (UniProt Q60751); assay: SPR, Fab over mIGF-1R-Fc captured by anti-Fc, apparent affinity

Kd [1]	koff [2]	fold decrease in binding against human IGF-1R Fc [3]	kon [4]	Kd [5]	Binder
5 nM					M14-C03 Fab (Fab, V domains shown) VH: EVQLLESGGGLVQPGGSLRLSCAASGFTFSKYMMSWVRQAPGKGLEWVSYISPSGGLTWYADSVKGRFTISRDNSKNTLYLQMNSLRAEDTAVYYCARDGARGYGMDVWGQGTTVTVSS VL: DIQMTQSPATLSLSPGERATLSCRASQSVSSYLAWYQQKPGQAPRLLIYDASNRATGIPARFSGSGSGTDFTLTISSLEPEDFAVYYCQQRSNWPPEVTFGPGTKVDIK
1 nM	4.2e-05 s⁻¹	100 fold	471 M⁻¹ s⁻¹	89.1 nM	M13-C06 Fab (Fab, V domains shown) VH: EVQLLESGGGLVQPGGSLRLSCAASGFTFSIYRMQWVRQAPGKGLEWVSGISPSGGTTWYADSVKGRFTISRDNSKNTLYLQMNSLRAEDTAVYYCARWSGGSGYAFDIWGQGTMVTVSS VL: DIQMTQSPLSLSASVGDRVTITCQASRDIRNYLNWYQQKPGKAPKLLIYDASSLQTGVPSRFGGSGSGTDFSFTIGSLQPEDIATYYCQQFDSLPHTFGQGTKLEIK
